# Laboratory results: publication PMC5811216, “Cleavage activates Dispatched for Sonic Hedgehog ligand release” (eLife, 2018)
# Molecular target: the molecule itself
# Test: native gel or EMSA; NIH3T3 lysates in NativePAGE sample buffer with 1% DDM, Benzonase treated; 4-20% NativePAGE Bis-Tris gel; anti-HA western blot
row,Protein,stoichiometry N
1,"DispHA, wild-type murine Dispatched 1 with a carboxyl-terminal HA tag (natural protein, mouse, UniProt Q3TDN0 1-1521, looked up, Dispatched 1 (Disp), mouse; Disp1 cDNA from RIKEN introduced into Not1-Xba1 sites of pCDNA3; The lysate holds both Disp175 and the cleaved Disp145; On the native gel there was a ~480 kDa fraction (trimer) and ~750 kDa fractions; also called pCDNA3 Dispatched WT HA; pCDNA-DispHA; source: NIH3T3, transfected, in lysate (1% DDM); not shown: HA, C-terminal, kept) MAVISGSDSVLLSNGSISTSTSNPSPLSPSDGDLPAQHLGPRETPRTKASPNGCLQLNGTVKSSFLPLDNQRTPQTPTQCCHPCPYHHPVSSHSNHQECHPEAGLAASPALASCRMQPHSEYSASLCPNHSPVYQAAHCLQPSPSFCLHHPWPDHFQHQPVRQHLTIIRPSRPFKFPRSYAALLADWPVVVLGMCTLLIVVCALVGVLVPELPDFSDPLLGFEPRGTTIGQRLVTWNNMMRNTGYKATLANYPYKYAEEQARSHRDDRWSDDHHERERREVDWNFQKDSFFCDVPSDGYSRVVFASAGGETLWNLPAIKSMCDVDNSRIRSHPQFSDLCQRTTAVSCCPSWTLGNYIAILNNRSSCQKIVERDVSHTLKLLRTCAKHYQNGTLGPDCWDKAARRKDQLKCTNVPRKCTKYNAVYQILHYLVDKDFMTPKTADYAVPALKYSMLFSPTEKGESMMNIYLDNFENWNSSDGITTVTGIEFGIKHSLFQDYLLMDTVYPAIAIAIVLLIMCVYTKSMFITLMTMFAIISSLIVSYFLYRVVFNFEFFPFMNLTALIILVGIGADDAFVLCDVWNYTKFDKPRAETSEAVSVTLQHAALSMFVTSFTTAAAFYANYVSNITAIRCFGVYAGTAILVNYVLMVTWLPAVIVLHERYLLNIFTCFRKPQPQAYDKSCWAVLCQKCRRVLFAVSEASRIFFEKVLPCIVIKFRYLWLIWFLALTVGGAYIVCVNPKMKLPSLELSEFQVFRSSHPFERYDAEFKKLFMFERVHHGEELHMPITVIWGVSPEDSGDPLNPKSKGELTLDSTFNIASPASQAWILHFCQKLRNQTFFHQTEQQDFTSCFIETFKQWMENQDCDEPALYPCCSHCSFPYKQEVFELCIKKAIMELDRSTGYHLNNKTPGPRFDINDTIRAVVLEFQSTFLFTLAYEKMQQFYKEVDSWISHELSSAPEGLSRGWFVSNLEFYDLQDSLSDGTLIAMGLSVAVAFSVMLLTTWNIIISLYAIVSIAGTIFVTVGSLVLLGWELNVLESVTISVAVGLSVDFAVHYGVAYRLAPDPDREGKVIFSLSRMGSAIAMAALTTFVAGAMMMPSTVLAYTQLGTFMMLVMCVSWAFATFFFQCLCRCLGPQGTCGQIPFPTKLQCSPFSHTLSARPGDRGPSKTHAASAYSVDARGQKSQLEHEFYELQPLASHSCTSSEKTTYEEPHTCSEFFNGQAKNLRMPVPAAYSSELTKSPSSEPGSALLQSCLEQDTVCHFSLNPRCNCRDAYTHLQYGLPEIHCQQMGDSLCHKCASTAGGFVQIQSSVAPLKASHQAAEGLLHPAQHMLPPGMQNSRPRNFFLHSVQHFQAQENLGRTSTHSTDERLPRTAELSPPPSDSRSTESFQRACCHPENNQRRLCKSRDPGDTEGSGGTKSKVSGLPNQTDKEEKQVEPSLLQTDETVNSEHLNHNESNFTFSHLPGEAGCRSCPNSPQSCRSIMRSKCGTEDCQTPNLEANVPAVPTHSDLSGESLLIKTL",3
2,"DispCSHA, cleavage site mutant (R279A, E280A) of murine Dispatched 1 with a carboxyl-terminal HA tag (natural protein, mouse, UniProt Q3TDN0 1-1521, looked up, Dispatched 1 (Disp), mouse; Disp1 cDNA from RIKEN in pCDNA3; convertase motif disrupted by R279A, E280A; also called DispHA-CS; pCDNA-DispCSHA; source: NIH3T3, transfected, in lysate (1% DDM); not shown: HA, C-terminal, kept) MAVISGSDSVLLSNGSISTSTSNPSPLSPSDGDLPAQHLGPRETPRTKASPNGCLQLNGTVKSSFLPLDNQRTPQTPTQCCHPCPYHHPVSSHSNHQECHPEAGLAASPALASCRMQPHSEYSASLCPNHSPVYQAAHCLQPSPSFCLHHPWPDHFQHQPVRQHLTIIRPSRPFKFPRSYAALLADWPVVVLGMCTLLIVVCALVGVLVPELPDFSDPLLGFEPRGTTIGQRLVTWNNMMRNTGYKATLANYPYKYAEEQARSHRDDRWSDDHHERERAAVDWNFQKDSFFCDVPSDGYSRVVFASAGGETLWNLPAIKSMCDVDNSRIRSHPQFSDLCQRTTAVSCCPSWTLGNYIAILNNRSSCQKIVERDVSHTLKLLRTCAKHYQNGTLGPDCWDKAARRKDQLKCTNVPRKCTKYNAVYQILHYLVDKDFMTPKTADYAVPALKYSMLFSPTEKGESMMNIYLDNFENWNSSDGITTVTGIEFGIKHSLFQDYLLMDTVYPAIAIAIVLLIMCVYTKSMFITLMTMFAIISSLIVSYFLYRVVFNFEFFPFMNLTALIILVGIGADDAFVLCDVWNYTKFDKPRAETSEAVSVTLQHAALSMFVTSFTTAAAFYANYVSNITAIRCFGVYAGTAILVNYVLMVTWLPAVIVLHERYLLNIFTCFRKPQPQAYDKSCWAVLCQKCRRVLFAVSEASRIFFEKVLPCIVIKFRYLWLIWFLALTVGGAYIVCVNPKMKLPSLELSEFQVFRSSHPFERYDAEFKKLFMFERVHHGEELHMPITVIWGVSPEDSGDPLNPKSKGELTLDSTFNIASPASQAWILHFCQKLRNQTFFHQTEQQDFTSCFIETFKQWMENQDCDEPALYPCCSHCSFPYKQEVFELCIKKAIMELDRSTGYHLNNKTPGPRFDINDTIRAVVLEFQSTFLFTLAYEKMQQFYKEVDSWISHELSSAPEGLSRGWFVSNLEFYDLQDSLSDGTLIAMGLSVAVAFSVMLLTTWNIIISLYAIVSIAGTIFVTVGSLVLLGWELNVLESVTISVAVGLSVDFAVHYGVAYRLAPDPDREGKVIFSLSRMGSAIAMAALTTFVAGAMMMPSTVLAYTQLGTFMMLVMCVSWAFATFFFQCLCRCLGPQGTCGQIPFPTKLQCSPFSHTLSARPGDRGPSKTHAASAYSVDARGQKSQLEHEFYELQPLASHSCTSSEKTTYEEPHTCSEFFNGQAKNLRMPVPAAYSSELTKSPSSEPGSALLQSCLEQDTVCHFSLNPRCNCRDAYTHLQYGLPEIHCQQMGDSLCHKCASTAGGFVQIQSSVAPLKASHQAAEGLLHPAQHMLPPGMQNSRPRNFFLHSVQHFQAQENLGRTSTHSTDERLPRTAELSPPPSDSRSTESFQRACCHPENNQRRLCKSRDPGDTEGSGGTKSKVSGLPNQTDKEEKQVEPSLLQTDETVNSEHLNHNESNFTFSHLPGEAGCRSCPNSPQSCRSIMRSKCGTEDCQTPNLEANVPAVPTHSDLSGESLLIKTL",3
